Assay results taken from patent publication US20200405820A1 (GENERAL HOSPITAL, published 2020).

Assays:
[1] = target: T1, parathyroid hormone receptor 1 (PTHR1) in human osteoblast-derived SaOS-2 cells (human, UniProt Q03431 27-593); test: cell-based or functional assay
T1 sequence (looked up): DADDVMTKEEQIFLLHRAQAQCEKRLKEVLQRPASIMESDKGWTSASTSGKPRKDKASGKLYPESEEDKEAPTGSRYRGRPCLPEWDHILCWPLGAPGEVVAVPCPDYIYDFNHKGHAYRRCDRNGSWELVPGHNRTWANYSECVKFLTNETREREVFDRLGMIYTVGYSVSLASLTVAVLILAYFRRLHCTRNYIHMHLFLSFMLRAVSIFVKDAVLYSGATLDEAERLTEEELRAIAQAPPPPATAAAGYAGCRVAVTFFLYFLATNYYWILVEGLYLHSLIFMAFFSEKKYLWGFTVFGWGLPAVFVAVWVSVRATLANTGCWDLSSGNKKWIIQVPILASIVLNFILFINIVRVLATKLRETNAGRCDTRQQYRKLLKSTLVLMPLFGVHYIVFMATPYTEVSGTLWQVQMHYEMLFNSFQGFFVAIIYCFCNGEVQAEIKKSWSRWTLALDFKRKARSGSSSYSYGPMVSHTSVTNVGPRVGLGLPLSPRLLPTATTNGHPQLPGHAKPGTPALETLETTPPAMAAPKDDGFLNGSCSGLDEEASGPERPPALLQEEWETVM

[2] = target: T1, parathyroid hormone receptor 1 (PTHR1) …; test: cell-based or functional assay; remark: listed apart in the source

B1: Palm-PTH(1-34) (Ref. No. 2027) (peptide)
peptide: SVSEIQLMHNLGKHLNSMERVEWLRKKLQDVHNFEYEXEYE
modifications: (PEG)2 linker (-C(O)-CH2(OCH2CH2)2CH2CH2-NH-) between the C-terminal Phe of PTH(1-34) and the N-terminal Glu of the tag; palmitoyl on the side-chain nitrogen of the Lys of the tag EYEK(palm)EYE; C-terminal amide (-NH2)
- EC50, stimulation of cAMP formation in SaOS-2 cells [1]: ~600 pM
- Max %, cAMP signaling in SaOS2/glosensor (SGS-72) cells [2]: 85%
- pEC50, cAMP signaling potency in SaOS2/glosensor (SGS-72) cells [2]: 9.81 log molar concentration (pEC50)
